Experimental findings from publication PMC6596994 (Nature, 2019) are described below.

B1: Mouse TBK1 (1–657, S172A) (domain or fragment)
chain: MQSTSNHLWLLSDILGQGATANVFRGRHKKTGDLYAVKVFNNISFLRPVDVQMREFEVLKKLNHKNIVKLFAIEEETTTRHKVLIMEFCPCGSLYTVLEEPSNAYGLPESEFLIVLRDVVGGMNHLRENGIVHRDIKPGNIMRVIGEDGQSVYKLTDFGAARELEDDEQFVALYGTEEYLHPDMYERAVLRKDHQKKYGATVDLWSVGVTFYHAATGSLPFRPFEGPRRNKEVMYKIITGKPSGAISGVQKAENGPIDWSGDMPLSCSLSQGLQALLTPVLANILEADQEKCWGFDQFFAETSDVLHRMVIHVFSLQHMTAHKIYIHSYNTAAVFHELVYKQTKIVSSNQELIYEGRRLVLELGRLAQHFPKTTEENPIFVTSREQLNTVGLRYEKISLPKIHPRYDLDGDASMAKAVTGVVCYACRTASTLLLYQELMRKGVRWLVELVKDDYNETVHKKTEVVITLDFCIRNIEKTVKVYEKLMKVNLEAAELGEISDIHTKLLRLSSSQGTIESSLQDISSRLSPGGLLADTWAHQEGTHPRDRNVEKLQVLLNCITEIYYQFKKDKAERRLAYNEEQIHKFDKQKLYYHATKAMSHFSEECVRKYEAFKDKSEEWMRKMLHLRKQLLSLTNQCFDIEEEVSKYQDYTNELQET

The series “crystal structure” concerns the molecule itself. The series is described as follows: crystal structure.
Series [1] deals with T1, human STING CTT (residue 342 to 379, V343W), crystallised (human, UniProt Q86WV6 342-379, V343W).
T1 chain: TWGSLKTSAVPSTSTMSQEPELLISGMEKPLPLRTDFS
The series is described as follows: crystal structure.

The target of series [2] is T2, Human TBK1 (1–657, S172A) (human, UniProt Q9UHD2 1-657, S172A).
T2 sequence: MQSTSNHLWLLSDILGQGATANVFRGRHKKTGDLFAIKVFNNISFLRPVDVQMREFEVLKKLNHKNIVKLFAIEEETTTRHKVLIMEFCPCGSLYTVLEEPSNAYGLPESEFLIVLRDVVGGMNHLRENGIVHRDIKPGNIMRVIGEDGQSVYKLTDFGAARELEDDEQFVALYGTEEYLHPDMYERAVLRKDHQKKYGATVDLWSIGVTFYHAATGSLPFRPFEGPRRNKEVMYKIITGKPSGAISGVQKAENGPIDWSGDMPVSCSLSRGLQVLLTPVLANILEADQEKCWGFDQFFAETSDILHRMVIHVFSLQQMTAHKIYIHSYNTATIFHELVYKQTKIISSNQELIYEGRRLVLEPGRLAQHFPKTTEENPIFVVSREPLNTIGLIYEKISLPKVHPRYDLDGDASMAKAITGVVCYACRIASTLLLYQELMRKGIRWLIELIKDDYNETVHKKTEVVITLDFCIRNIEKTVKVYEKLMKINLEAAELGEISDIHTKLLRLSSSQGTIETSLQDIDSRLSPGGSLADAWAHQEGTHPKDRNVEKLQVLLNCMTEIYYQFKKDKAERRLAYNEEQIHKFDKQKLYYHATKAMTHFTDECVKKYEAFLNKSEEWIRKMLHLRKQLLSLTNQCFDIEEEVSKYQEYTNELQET
Put plainly: SPR. For orientation: Surface plasmon resonance follows binding to a sensor surface in real time, without labels.

For series [3], the target named is B1. The series is described as follows: SPR.
The target of the next series is T3, Mouse TBK1 (1–657) (mouse, UniProt Q9WUN2 1-657).
T3 sequence: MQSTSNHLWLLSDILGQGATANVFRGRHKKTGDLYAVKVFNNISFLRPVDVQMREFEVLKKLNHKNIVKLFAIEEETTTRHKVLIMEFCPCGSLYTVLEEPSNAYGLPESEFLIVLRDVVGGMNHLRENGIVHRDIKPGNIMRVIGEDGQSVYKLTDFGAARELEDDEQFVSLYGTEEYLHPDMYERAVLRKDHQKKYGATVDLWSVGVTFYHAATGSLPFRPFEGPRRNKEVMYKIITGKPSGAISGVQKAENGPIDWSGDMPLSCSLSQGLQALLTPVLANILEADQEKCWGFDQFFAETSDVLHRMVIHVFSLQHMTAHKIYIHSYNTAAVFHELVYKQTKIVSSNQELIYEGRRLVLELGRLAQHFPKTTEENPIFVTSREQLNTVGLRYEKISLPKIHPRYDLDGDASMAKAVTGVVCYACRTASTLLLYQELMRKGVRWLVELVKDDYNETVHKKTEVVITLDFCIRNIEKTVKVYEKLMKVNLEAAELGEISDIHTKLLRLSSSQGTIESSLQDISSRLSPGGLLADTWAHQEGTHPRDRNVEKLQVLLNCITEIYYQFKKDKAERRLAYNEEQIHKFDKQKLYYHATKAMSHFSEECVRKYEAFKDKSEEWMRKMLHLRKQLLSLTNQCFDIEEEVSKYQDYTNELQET
Put plainly: SPR.

In series [4] the target is T2, Human TBK1 (1–657, S172A). The series is described as follows: SPR. The source holds these as a separate data set.
For series [5], the target named is B1. Put plainly: SPR. This is another data set of the same source.
Series [6] has as its target T4, Human TBK1 (residue 1–657, S172E, D135N) (human, UniProt Q9UHD2 1-657, S172E | D135N).
T4 sequence: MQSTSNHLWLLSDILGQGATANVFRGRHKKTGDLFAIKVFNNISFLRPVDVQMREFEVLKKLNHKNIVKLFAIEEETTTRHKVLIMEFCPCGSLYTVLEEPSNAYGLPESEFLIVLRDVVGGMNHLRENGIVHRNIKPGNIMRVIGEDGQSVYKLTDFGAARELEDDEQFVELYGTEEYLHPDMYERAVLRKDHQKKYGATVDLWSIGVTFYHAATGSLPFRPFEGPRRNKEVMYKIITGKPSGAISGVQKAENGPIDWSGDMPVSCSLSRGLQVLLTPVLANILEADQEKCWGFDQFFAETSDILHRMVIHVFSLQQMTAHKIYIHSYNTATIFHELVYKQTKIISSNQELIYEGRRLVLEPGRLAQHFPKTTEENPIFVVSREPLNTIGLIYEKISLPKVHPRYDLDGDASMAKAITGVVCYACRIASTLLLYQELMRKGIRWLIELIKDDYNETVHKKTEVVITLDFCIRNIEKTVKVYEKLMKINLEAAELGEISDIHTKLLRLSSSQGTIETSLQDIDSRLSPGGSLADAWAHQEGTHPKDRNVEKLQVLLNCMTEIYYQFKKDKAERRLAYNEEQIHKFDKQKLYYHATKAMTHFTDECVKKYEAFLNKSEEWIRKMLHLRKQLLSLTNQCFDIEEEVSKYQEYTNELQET
Put plainly: crystal structure.

Like-named read-outs stand apart in the source and are kept apart here.

The term stoichiometry N denotes the number of molecules, sites or subunits per partner or assembly. For the molecule B1, the “stoichiometry N” value in “crystal structure” was 2; in series [1] it was 1 TBK1 chain per STING peptide (2:2).

B2: p-hSTING (155–379) (domain or fragment)
chain: VAHGLAWSYYIGYLRLILPELQARIRTYNQHYNNLLRGAVSQRLYILLPLDCGVPDNLSMADPNIRFLDKLPQQTGDHAGIKDRVYSNSIYELLENGQRAGTCVLEYATPLQTLFAMSQYSQAGFSREDRLEQAKLFCRTLEDILADAPESQNNCRLIAYQEPADDSSFSLSQEVLRHLRQEEKEEVTVGSLKTSAVPSTSTMSQEPELLISGMEKPLPLRTDFS
For orientation: Kd means the constant that tells how readily two partners part at equilibrium. High values mean a looser complex, low ones a tighter complex. Turning to B2, the Kd in series [2] was found to be 11 µM; in series [3], 9.1 µM; with Mouse TBK1 (1–657) it was 13.3 µM; in series [4], 20 µM; in series [5] it was 12.5 µM.

B3: human STING CTD (residues 155 to 379, T376E, F378M, S379W), crystallised (domain or fragment)
chain: VAHGLAWSYYIGYLRLILPELQARIRTYNQHYNNLLRGAVSQRLYILLPLDCGVPDNLSMADPNIRFLDKLPQQTGDHAGIKDRVYSNSIYELLENGQRAGTCVLEYATPLQTLFAMSQYSQAGFSREDRLEQAKLFCRTLEDILADAPESQNNCRLIAYQEPADDSSFSLSQEVLRHLRQEEKEEVTVGSLKTSAVPSTSTMSQEPELLISGMEKPLPLREDMW
With B3, the binding result in series [6] was “binds”.
